Experimental findings from publication PMC10814857 (2024) are described below.

Common to all, as to assay: FP
Assay [1] has as its target RP2, fluorescein-labelled reference peptide from the N-terminal extension of the RHO GTPase WRCH1/RHOU (human, UniProt Q7L0Q8, fluorescein (FITC) label, position not stated).
Assay [2] deals with P7, fluorescein-labelled proline-rich peptide from the SOS1 proline-rich domain (human, UniProt Q07889, fluorescein (FITC) label, position not stated).
The target in assay [3] is P9, fluorescein-labelled proline-rich peptide from the SOS1 proline-rich domain (human, UniProt Q07889, fluorescein (FITC) label, position not stated).
The target in assay [4] is P4, fluorescein-labelled proline-rich peptide from the SOS1 proline-rich domain (human, UniProt Q07889, fluorescein (FITC) label, position not stated).
Assay [5] concerns the target RP1, fluorescein-labelled reference peptide, a SOS1 derivative encompassing part of P3 (human, UniProt Q07889, fluorescein (FITC) label, position not stated).
For assay [6], the target named is P2, fluorescein-labelled proline-rich peptide from the SOS1 proline-rich domain (human, UniProt Q07889, fluorescein (FITC) label, position not stated).
In assay [7] the target is P3, fluorescein-labelled proline-rich peptide from the SOS1 proline-rich domain (human, UniProt Q07889, fluorescein (FITC) label, position not stated).

As a reminder, the Kd is a measure of binding affinity in units of concentration. Read a low Kd as a tighter complex.

B1: BIN1 SH3 domain, GST cleaved (domain or fragment)
chain: GFMFKVQAQHDYTATDTDELQLKAGDVVLVIPFQNPEEQDEGWLMGVKESDWNQHKELEKCRGVFPENFTERVP
Take B1: the Kd stood at 48 µM in assay [1], 12 µM in assay [2] and 47 µM in assay [3].

B2: ARHGEF30 (Obscurin/OBSCN) SH3 domain, GST cleaved (domain or fragment)
chain: EIFDIYVVTADYLPLGAEQDAITLREGQYVEVLDAAHPLRWLVRTKPTKSSPSRQGWVSPAYLDRRLK
Molecule B2 had a Kd in assay [2] of 8.9 µM.

B3: ABL2 SH3 domain, GST cleaved (domain or fragment)
chain: SDPNLFVALYDFVASGDNTLSITKGEKLRVLGYNQNGEWSEVRSKNGQGWVPSNYITPVNS
Consider B3, for which the dissociation constant Kd came to 125 µM in assay [4], 11 µM in assay [5] and 67.3 µM in assay [2].

B4: NCK1-2 SH3 domain, GST cleaved (domain or fragment)
chain: DLNMPAYVKFNYMAEREDELSLIKGTKVIVMEKCSDGWWRGSYNGQVGWFPSNYVTEEGD
B4 yielded a dissociation constant Kd in assay [5] of 2 µM. This counts as single-digit micromolar.

B5: DLG2 SH3 domain, GST cleaved (domain or fragment)
chain: KRSLYVRAMFDYDKSKDSGLPSQGLSFKYGDILHVINASDDEWWQARRVMLEGDSEEMGVIPSKRRVERKE
The molecule B5 yielded a dissociation constant Kd in assay [2] of 58.5 µM.

B6: ABI1 SH3 domain, GST cleaved (domain or fragment)
chain: NYIEKVVAIYDYTKDKDDELSFMEGAIIYVIKKNDDGWYEGVCNRVTGLFPGNYVESIMH
On to B6, for which the dissociation constant (Kd) in assay [6] came to 60.7 µM; in assay [4] it was 24.6 µM.

B7: NCK1-3, third SH3 domain of NCK1, GST cleaved (domain or fragment)
chain: QVLHVVQALYPFSSSNDEELNFEKGDVMDVIEKPENDPEWWKCRKINGMVGLVPKNYVTVMQN
For the molecule B7, the results for the dissociation constant Kd in assay [1] and in assay [5] were 2.5 µM and 24.6 µM, respectively.

B8: ARHGAP12 SH3 domain, GST cleaved (domain or fragment)
chain: PGQVYIEVEYDYEYEAKDRKIVIKQGERYILVKKTNDDWWQVKPDENSKAFYVPAQYVKEVTR
For the molecule B8, the results for the Kd in assay [1], in assay [5] and in assay [7] were 15.5 µM, 16.7 µM and 13.8 µM, respectively.
